According to PMC10938568 (Science Advances, 2021):
Read-outs that look alike come from different tables or passages of the source.

B1: His8-TEV-GABARAP (1 to 117) (natural protein)
chain: MKFVYKEEHPFEKRRSEGEKIRKKYPDRVPVIVEKAPKARIGDLDKKKYLVPSDLTVGQFYFLIRKRIHLRAEDALFFFVNNVIPPTSATMGQLYQEHHEEDFFLYIAYSDESVYGL
B2: GST-PreScission-p62 FIR 4P (domain or fragment)
chain: MESDNCSGGDDDWTHLSSKEVDPETGELQSLQMPESEGPEELDPEQEGPTGLKEA

Assays:
Assay in all cases: SPR
[1] = molecular target: T1, Biotinylated FLCN-8xGlycine-AviTag/FNIP2 (human, UniProt Q8NFG4;Q9P278, biotin on the AviTag)
[2] = molecular target: T1, Biotinylated FLCN-8xGlycine-AviTag/FNIP2; remark: listed apart in the source
[3] = molecular target: B1
[4] = molecular target: His8-TEV-LC3B (1 to 125) (human, UniProt Q9GZQ8 1-120)

Row | Binder | Kd [1] | Kd [2] | Kd [3] | Kd [4]
1 | B1 | 0.3 ± 0.018 nM | 0.071 ± 0.01 nM |  | 
2 | B2 |  |  | 670 ± 80 nM | 820 ± 40 nM
